Source: patent US20210246166A1 (Bayer, published 2021)
Numbered stars: 1 amine (or outer) side, 2 acyl side, 3 side chain; on linkers, the order of the positions; unused ones are H or OH. Bridge positions count the residues as written; N and C are the ends. Square brackets hold non-standard residues; d marks the D form. Ends that are not written are not given here. * marks the point of attachment. (N-Benzyl)D = (2S)-2-Amino-4-(benzylamino)-4-oxobutanecarboxylic acid, O=C(C[C@H](N[*:1])C(=O)[*:2])NCc1ccccc1; βDap = *Dap: Dap linked through its additional amino group, O=C([C@H](CN[*:1])N[*:3])[*:2]; X3 = (1R,3S)‑3‑(Amino)cyclopentanecarboxylic acid, O=C([C@@H]1CC[C@H](N[*:1])C1)[*:2]; X4 = (1S,3R)‑3‑(Amino)cyclopentanecarboxylic acid, O=C([C@H]1CC[C@@H](N[*:1])C1)[*:2]; X9 = (S)‑3‑(1-Pyrrolidine-2-yl)‑propionic acid, O=C(CC[C@@H]1CCCN1[*:1])[*:2]; X8 = (R)‑4‑Amino‑6‑methylheptanoic acid, CC(C)C[C@@H](CCC(=O)[*:2])N[*:1]; X6 = (S)‑(1-Piperidin-3-yl)‑acetic acid, O=C(C[C@@H]1CCCN([*:1])C1)[*:2]; X11 = (S)‑Piperidine‑3‑carboxylic acid, O=C([C@H]1CCCN([*:1])C1)[*:2]; X14 = (2,4-dioxoimidazolidin-1-yl)acetic acid, O=C1CN(CC(=O)*)C(=O)N1; Nip(3R) = O=C([C@@H]1CCCN([*:1])C1)[*:2]; Oic = O=C(O)[C@@H]1C[C@@H]2CCCC[C@@H]2N1; βPro(3S) = O=C([C@H]1CCN([*:1])C1)[*:2]; tBuAla = CC(C)(C)C[C@H](N)C(=O)O; Pen = CC(C)(S)[C@H](N)C(=O)O; β3hP = O=C(O)C[C@@H]1CCCN1; NMeA = CN[C@@H](C)C(=O)O; Nva = CCC[C@H](N)C(=O)O; Sar = CNCC(=O)O

T1: recombinant rat MASP1 active protease (amino acids 302-704, C-terminal His Tag) (rat, UniProt Q8CHN8 302-704)
T1 sequence: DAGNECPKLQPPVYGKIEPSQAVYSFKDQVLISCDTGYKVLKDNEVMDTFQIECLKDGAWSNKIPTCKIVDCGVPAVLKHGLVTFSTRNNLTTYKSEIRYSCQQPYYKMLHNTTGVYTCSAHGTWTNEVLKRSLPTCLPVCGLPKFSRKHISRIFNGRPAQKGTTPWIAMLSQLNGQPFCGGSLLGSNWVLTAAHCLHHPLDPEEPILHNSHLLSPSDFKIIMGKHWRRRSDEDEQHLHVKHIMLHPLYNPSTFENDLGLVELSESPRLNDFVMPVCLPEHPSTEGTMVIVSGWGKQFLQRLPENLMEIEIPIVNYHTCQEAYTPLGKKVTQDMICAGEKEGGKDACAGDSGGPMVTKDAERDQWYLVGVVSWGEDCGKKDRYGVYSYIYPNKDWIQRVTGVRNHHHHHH

B1: Example 458: AIC+SRSLP-(Oic)-I-(Pen)+IP-(*Dap)-OH (peptide)
peptide: AICSRSLP[Oic]I[Pen]IP[βDap]-OH
modifications: disulfide 3-11; also: Dap at position 14 joined through its 3-amino group
B2: Example 460: ((S)-Piperidine-3-carboxylic acid)-IC+SRSLP-(Oic)-I-(Pen)+I-OH (peptide)
peptide: [X11]ICSRSLP[Oic]I[Pen]I-OH
modifications: disulfide 3-11; N-terminus assumed
SMILES: CC[C@H](C)[C@H](NC(=O)[C@H]1NC(=O)[C@H]([C@@H](C)CC)NC(=O)[C@@H]2C[C@@H]3CCCC[C@@H]3N2C(=O)[C@@H]2CCCN2C(=O)[C@H](CC(C)C)NC(=O)[C@H](CO)NC(=O)[C@H](CCCNC(=N)N)NC(=O)[C@H](CO)NC(=O)[C@@H](NC(=O)[C@@H](NC(=O)[C@H]2CCCNC2)[C@@H](C)CC)CSSC1(C)C)C(=O)O
B3: Example 459: ((R)-Piperidine-3-carboxylic acid)-IC+SRSLP-(Oic)-I-(Pen)+I-OH (peptide)
peptide: [Nip(3R)]ICSRSLP[Oic]I[Pen]I-OH
modifications: disulfide 3-11; N-terminus assumed
SMILES: CC[C@H](C)[C@H](NC(=O)[C@H]1NC(=O)[C@H]([C@@H](C)CC)NC(=O)[C@@H]2C[C@@H]3CCCC[C@@H]3N2C(=O)[C@@H]2CCCN2C(=O)[C@H](CC(C)C)NC(=O)[C@H](CO)NC(=O)[C@H](CCCNC(=N)N)NC(=O)[C@H](CO)NC(=O)[C@@H](NC(=O)[C@@H](NC(=O)[C@@H]2CCCNC2)[C@@H](C)CC)CSSC1(C)C)C(=O)O
B4: Example 455: ((N-Me)G)-IC+SRSLP-(Oic)-I-(Pen)+IP-(beta-homo-P)-OH (peptide)
peptide: [Sar]ICSRSLP[Oic]I[Pen]IP[β3hP]-OH
modifications: disulfide 3-11; N-terminus assumed
SMILES: CC[C@H](C)[C@H](NC(=O)CNC)C(=O)N[C@H]1CSSC(C)(C)[C@@H](C(=O)N[C@H](C(=O)N2CCC[C@H]2C(=O)N2CCC[C@H]2CC(=O)O)[C@@H](C)CC)NC(=O)[C@H]([C@@H](C)CC)NC(=O)[C@@H]2C[C@@H]3CCCC[C@@H]3N2C(=O)[C@@H]2CCCN2C(=O)[C@H](CC(C)C)NC(=O)[C@H](CO)NC(=O)[C@H](CCCNC(=N)N)NC(=O)[C@H](CO)NC1=O
B5: Example 451: ((N-Me)G)-IC+SRSLP-(Oic)-I-(Pen)+IP-((S)-(1-Piperidin-3-yl)-acetic acid)-OH (peptide)
peptide: [Sar]ICSRSLP[Oic]I[Pen]IP[X6]-OH
modifications: disulfide 3-11; N-terminus assumed
SMILES: CC[C@H](C)[C@H](NC(=O)CNC)C(=O)N[C@H]1CSSC(C)(C)[C@@H](C(=O)N[C@H](C(=O)N2CCC[C@H]2C(=O)N2CCC[C@@H](CC(=O)O)C2)[C@@H](C)CC)NC(=O)[C@H]([C@@H](C)CC)NC(=O)[C@@H]2C[C@@H]3CCCC[C@@H]3N2C(=O)[C@@H]2CCCN2C(=O)[C@H](CC(C)C)NC(=O)[C@H](CO)NC(=O)[C@H](CCCNC(=N)N)NC(=O)[C@H](CO)NC1=O
B6: Example 454: ((N-Me)G)-IC+SRSLP-(Oic)-I-(Pen)+IPN-OH (peptide)
peptide: [Sar]ICSRSLP[Oic]I[Pen]IPN-OH
modifications: disulfide 3-11; N-terminus assumed
SMILES: CC[C@H](C)[C@H](NC(=O)CNC)C(=O)N[C@H]1CSSC(C)(C)[C@@H](C(=O)N[C@H](C(=O)N2CCC[C@H]2C(=O)N[C@@H](CC(N)=O)C(=O)O)[C@@H](C)CC)NC(=O)[C@H]([C@@H](C)CC)NC(=O)[C@@H]2C[C@@H]3CCCC[C@@H]3N2C(=O)[C@@H]2CCCN2C(=O)[C@H](CC(C)C)NC(=O)[C@H](CO)NC(=O)[C@H](CCCNC(=N)N)NC(=O)[C@H](CO)NC1=O
B7: Example 449: ((N-Me)G)-IC+SRSLP-(Oic)-I-(Pen)+IP-((1R,3S)-3-(Amino)cyclopentanecarboxylic acid)-OH (peptide)
peptide: [Sar]ICSRSLP[Oic]I[Pen]IP[X3]-OH
modifications: disulfide 3-11; N-terminus assumed
SMILES: CC[C@H](C)[C@H](NC(=O)CNC)C(=O)N[C@H]1CSSC(C)(C)[C@@H](C(=O)N[C@H](C(=O)N2CCC[C@H]2C(=O)N[C@H]2CC[C@@H](C(=O)O)C2)[C@@H](C)CC)NC(=O)[C@H]([C@@H](C)CC)NC(=O)[C@@H]2C[C@@H]3CCCC[C@@H]3N2C(=O)[C@@H]2CCCN2C(=O)[C@H](CC(C)C)NC(=O)[C@H](CO)NC(=O)[C@H](CCCNC(=N)N)NC(=O)[C@H](CO)NC1=O
B8: Example 463: ((N-Me)G)-IC+SRSLP-(Oic)-I-(Pen)+IPDK-OH (peptide)
peptide: [Sar]ICSRSLP[Oic]I[Pen]IPDK-OH
modifications: disulfide 3-11; N-terminus assumed
SMILES: CC[C@H](C)[C@H](NC(=O)CNC)C(=O)N[C@H]1CSSC(C)(C)[C@@H](C(=O)N[C@H](C(=O)N2CCC[C@H]2C(=O)N[C@@H](CC(=O)O)C(=O)N[C@@H](CCCCN)C(=O)O)[C@@H](C)CC)NC(=O)[C@H]([C@@H](C)CC)NC(=O)[C@@H]2C[C@@H]3CCCC[C@@H]3N2C(=O)[C@@H]2CCCN2C(=O)[C@H](CC(C)C)NC(=O)[C@H](CO)NC(=O)[C@H](CCCNC(=N)N)NC(=O)[C@H](CO)NC1=O
B9: Example 450: ((N-Me)G)-IC+SRSLP-(Oic)-I-(Pen)+IP-((R)-4-Amino-6-methylheptanoic acid)-OH (peptide)
peptide: [Sar]ICSRSLP[Oic]I[Pen]IP[X8]-OH
modifications: disulfide 3-11; N-terminus assumed
SMILES: CC[C@H](C)[C@H](NC(=O)CNC)C(=O)N[C@H]1CSSC(C)(C)[C@@H](C(=O)N[C@H](C(=O)N2CCC[C@H]2C(=O)N[C@H](CCC(=O)O)CC(C)C)[C@@H](C)CC)NC(=O)[C@H]([C@@H](C)CC)NC(=O)[C@@H]2C[C@@H]3CCCC[C@@H]3N2C(=O)[C@@H]2CCCN2C(=O)[C@H](CC(C)C)NC(=O)[C@H](CO)NC(=O)[C@H](CCCNC(=N)N)NC(=O)[C@H](CO)NC1=O
B10: Example 457: ((2,4-dioxoimidazolidin-1-yl)acetic acid)-IC+SRSLP-(Oic)-I-(Pen)+IPD-OH (peptide)
peptide: X14-ICSRSLP[Oic]I[Pen]IPD-OH
modifications: disulfide 2-10
SMILES: CC[C@H](C)[C@H](NC(=O)CN1CC(=O)NC1=O)C(=O)N[C@H]1CSSC(C)(C)[C@@H](C(=O)N[C@H](C(=O)N2CCC[C@H]2C(=O)N[C@@H](CC(=O)O)C(=O)O)[C@@H](C)CC)NC(=O)[C@H]([C@@H](C)CC)NC(=O)[C@@H]2C[C@@H]3CCCC[C@@H]3N2C(=O)[C@@H]2CCCN2C(=O)[C@H](CC(C)C)NC(=O)[C@H](CO)NC(=O)[C@H](CCCNC(=N)N)NC(=O)[C@H](CO)NC1=O
B11: Example 448: ((N-Me)G)-IC+RRS-((tBu)A)-PP-(Nva)-(Pen)+IP-NH2 (peptide)
peptide: [Sar]ICRRS[tBuAla]PP[Nva][Pen]IP-NH2
modifications: disulfide 3-11; N-terminus assumed
SMILES: CCC[C@@H]1NC(=O)[C@@H]2CCCN2C(=O)[C@@H]2CCCN2C(=O)[C@H](CC(C)(C)C)NC(=O)[C@H](CO)NC(=O)[C@H](CCCNC(=N)N)NC(=O)[C@H](CCCNC(=N)N)NC(=O)[C@@H](NC(=O)[C@@H](NC(=O)CNC)[C@@H](C)CC)CSSC(C)(C)[C@@H](C(=O)N[C@H](C(=O)N2CCC[C@H]2C(N)=O)[C@@H](C)CC)NC1=O
B12: Example 453: ((N-Me)G)-IC+SRSLP-(Oic)-I-(Pen)+IP-((S)-3-(1-Pyrrolidine-2-yl)-propionic acid)-OH (peptide)
peptide: [Sar]ICSRSLP[Oic]I[Pen]IP[X9]-OH
modifications: disulfide 3-11; N-terminus assumed
SMILES: CC[C@H](C)[C@H](NC(=O)CNC)C(=O)N[C@H]1CSSC(C)(C)[C@@H](C(=O)N[C@H](C(=O)N2CCC[C@H]2C(=O)N2CCC[C@H]2CCC(=O)O)[C@@H](C)CC)NC(=O)[C@H]([C@@H](C)CC)NC(=O)[C@@H]2C[C@@H]3CCCC[C@@H]3N2C(=O)[C@@H]2CCCN2C(=O)[C@H](CC(C)C)NC(=O)[C@H](CO)NC(=O)[C@H](CCCNC(=N)N)NC(=O)[C@H](CO)NC1=O
B13: Example 462: ((N-Me)A)-IC+SRSLP-(Oic)-I-(Pen)+IP-((N-Benzyl)D)-NH2 (peptide)
peptide: [NMeA]ICSRSLP[Oic]I[Pen]IP[(N-Benzyl)D]-NH2
modifications: disulfide 3-11
B14: Example 452: ((N-Me)G)-IC+SRSLP-(Oic)-I-(Pen)+IP-((1S,3R)-3-(Amino)cyclopentanecarboxylic acid)-OH (peptide)
peptide: [Sar]ICSRSLP[Oic]I[Pen]IP[X4]-OH
modifications: disulfide 3-11; N-terminus assumed
SMILES: CC[C@H](C)[C@H](NC(=O)CNC)C(=O)N[C@H]1CSSC(C)(C)[C@@H](C(=O)N[C@H](C(=O)N2CCC[C@H]2C(=O)N[C@@H]2CC[C@H](C(=O)O)C2)[C@@H](C)CC)NC(=O)[C@H]([C@@H](C)CC)NC(=O)[C@@H]2C[C@@H]3CCCC[C@@H]3N2C(=O)[C@@H]2CCCN2C(=O)[C@H](CC(C)C)NC(=O)[C@H](CO)NC(=O)[C@H](CCCNC(=N)N)NC(=O)[C@H](CO)NC1=O
B15: Example 456: ((N-Me)G)-IC+SRSLP-(Oic)-I-(Pen)+IP-((S)-Pyrrolidine-3-carboxylic acid)-OH (peptide)
peptide: [Sar]ICSRSLP[Oic]I[Pen]IP[βPro(3S)]-OH
modifications: disulfide 3-11; N-terminus assumed
SMILES: CC[C@H](C)[C@H](NC(=O)CNC)C(=O)N[C@H]1CSSC(C)(C)[C@@H](C(=O)N[C@H](C(=O)N2CCC[C@H]2C(=O)N2CC[C@H](C(=O)O)C2)[C@@H](C)CC)NC(=O)[C@H]([C@@H](C)CC)NC(=O)[C@@H]2C[C@@H]3CCCC[C@@H]3N2C(=O)[C@@H]2CCCN2C(=O)[C@H](CC(C)C)NC(=O)[C@H](CO)NC(=O)[C@H](CCCNC(=N)N)NC(=O)[C@H](CO)NC1=O

biological target: recombinant rat MASP2 active protease (amino acids 296-685, C-terminal His Tag) (rat, UniProt Q9JJS8 296-685); assay: cell-based or functional assay
Sequence (Q9JJS8 other isoform, or with tags, fused parts or gaps limits assumed): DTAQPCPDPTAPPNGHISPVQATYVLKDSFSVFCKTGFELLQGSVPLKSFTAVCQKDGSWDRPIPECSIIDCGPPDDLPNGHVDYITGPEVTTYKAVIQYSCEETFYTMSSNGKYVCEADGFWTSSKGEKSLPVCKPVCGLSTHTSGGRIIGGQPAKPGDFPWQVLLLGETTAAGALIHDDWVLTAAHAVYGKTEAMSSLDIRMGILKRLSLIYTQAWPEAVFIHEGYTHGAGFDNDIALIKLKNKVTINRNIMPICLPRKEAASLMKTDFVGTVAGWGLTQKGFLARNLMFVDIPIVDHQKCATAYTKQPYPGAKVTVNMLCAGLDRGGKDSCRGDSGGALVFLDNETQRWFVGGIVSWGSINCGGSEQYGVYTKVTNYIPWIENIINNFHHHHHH

| rat MASP2 IC50 [nM] | Binder |
| --- | --- |
| 100 | B1 |
| 69 | B2 |
| 51 | B3 |
| 32 | B4 |
| 46 | B5 |
| 79 | B6 |
| 44.5 | B7 |
| 100 | B8 |
| 52 | B9 |
| 5 | B10 |
| 5000 | B11 |
| 32 | B12 |
| 150 | B13 |
| 37 | B14 |
| 30 | B15 |

biological target: T1, recombinant rat MASP1 active protease …; assay: cell-based or functional assay

| rat MASP1 IC50 [nM] | Binder |
| --- | --- |
| 250 | B1 |
| 210 | B2 |
| 180 | B3 |
| 41 | B4 |
| 46 | B5 |
| 127 | B6 |
| 45 | B7 |
| 190 | B8 |
| 31 | B9 |
| 20 | B10 |
| 5000 | B11 |
| 38 | B12 |
| 160 | B13 |
| 36 | B14 |
| 39 | B15 |
